Test results reported in paper PMC5469476.

Experiments:
[1] = target: human glucagon-like peptide-1 receptor (GLP1R) with C-terminal 1D4 epitope, purified in nanodiscs (GLP1R-ND) (human) (UniProt P43220)
[2] = target: human glucagon-like peptide-1 receptor (GLP1R) with C-terminal 1D4 epitope, purified in nanodiscs (GLP1R-ND) (human) (UniProt P43220); experiment: fluorescence polarisation; fluorescence anisotropy; 50 nM FAM-labeled peptide with 0 to 400 nM freshly prepared GLP1R-ND (or empty-ND); 20 mM Tris-HCl pH 7.4, 150 mM NaCl, EDTA, 3 mM MgCl2; room temperature; single-site binding model; three independent receptor preparations
[3] = target: human glucagon-like peptide-1 receptor (GLP1R) with C-terminal 1D4 epitope, purified in nanodiscs (GLP1R-ND) (human) (UniProt P43220); experiment: fluorescence polarisation

UniProt P43220, sequence (P43220 24-463): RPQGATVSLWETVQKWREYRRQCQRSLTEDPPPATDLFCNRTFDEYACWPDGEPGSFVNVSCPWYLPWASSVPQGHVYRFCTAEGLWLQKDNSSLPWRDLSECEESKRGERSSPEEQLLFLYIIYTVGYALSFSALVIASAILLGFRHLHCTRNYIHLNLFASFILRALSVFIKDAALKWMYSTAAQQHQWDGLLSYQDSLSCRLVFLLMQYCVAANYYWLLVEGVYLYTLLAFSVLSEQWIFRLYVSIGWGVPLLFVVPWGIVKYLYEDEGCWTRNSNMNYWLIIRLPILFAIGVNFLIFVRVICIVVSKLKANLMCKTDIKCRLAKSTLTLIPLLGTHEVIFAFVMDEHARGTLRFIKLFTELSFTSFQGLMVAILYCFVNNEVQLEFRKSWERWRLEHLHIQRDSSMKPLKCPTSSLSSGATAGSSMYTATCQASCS

Row | EC50 of cell-based cAMP assay (receptor on cells, details in S1 Supporting Information) [1] [nM] | Kd [2] [nM] | Substance | Kd [3] [nM]
1 | 1.18 | 284 | FAM-labeled GLP-1-(7-37) (E21K, 5(6)-carboxyfluorescein on the lysine) (peptide) | 
2 |  |  | FAM-labeled exendin-4 (L21K, 5(6)-carboxyfluorescein on the lysine) (peptide) | 178
